Assay results reported in the supplement of paper PMC9112550, “Optimization of the antimicrobial peptide Bac7 by deep mutational scanning” (BMC Biology, 2022).

Each sequence was assayed on Escherichia coli TOP10 (assay: shrunken log2 fold change of peptide-encoding DNA abundance (4.5 h post-induction vs induction); higher = less antimicrobial activity (less host growth inhibition)). Conditions: time post-induction: 4.5 h; library: site-saturation at positions 5, 18, 19, 20.
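Also: peptides expressed intracellularly from a pBAD plasmid library in pooled LB shake-flask culture, induced with 0.3% L-arabinose, DNA abundance read by NGS, three biological replicates, DESeq2 with apeglm shrinkage.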

| Sequence | shrunken log2 fold change |
| --- | --- |
| RRIRVRPPRLPRPRPRPTKHPRP | -0.135 |
| RRIRKRPPRLPRPRPRPTMLPRP | 0.131 |
| RRIRERPPRLPRPRPRPMAPPRP | 1.59 |
| RRIRTRPPRLPRPRPRPPINPRP | -0.338 |
| RRIRCRPPRLPRPRPRPQVYPRP | -0.313 |
| RRIRVRPPRLPRPRPRPPQMPRP | 0.236 |
| RRIRMRPPRLPRPRPRPRWGPRP | 0.279 |
| RRIRQRPPRLPRPRPRPAMWPRP | 0.579 |
| RRIRWRPPRLPRPRPRPYAKPRP | -0.41 |
| RRIRERPPRLPRPRPRPQVHPRP | -0.445 |
| RRIRMRPPRLPRPRPRPRFTPRP | 0.323 |
| RRIRDRPPRLPRPRPRPTEMPRP | 0.367 |
| RRIRYRPPRLPRPRPRPPKCPRP | -0.813 |
| RRIRERPPRLPRPRPRPHFNPRP | -0.744 |
| RRIRCRPPRLPRPRPRPEPQPRP | 0.468 |
| RRIRMRPPRLPRPRPRPGKVPRP | 0.101 |
| RRIRTRPPRLPRPRPRPYNGPRP | -0.203 |
| RRIRSRPPRLPRPRPRPSWCPRP | -0.132 |
| RRIRSRPPRLPRPRPRPQMGPRP | -0.046 |
| RRIRCRPPRLPRPRPRPKWYPRP | -0.239 |
| RRIRHRPPRLPRPRPRPGCFPRP | -0.181 |
| RRIRMRPPRLPRPRPRPIGKPRP | 0.208 |
| RRIRERPPRLPRPRPRPEDQPRP | -0.0394 |
| RRIRIRPPRLPRPRPRPPQPPRP | 0.343 |
| RRIRDRPPRLPRPRPRPCQCPRP | -0.017 |

| Sequence | shrunken log2 fold change |
| --- | --- |
| RRIRDRPPRLPRPRPRPYGHPRP | -0.012 |
| RRIRKRPPRLPRPRPRPCEMPRP | 0.0303 |
| RRIRMRPPRLPRPRPRPIMMPRP | -0.00663 |
| RRIRRRPPRLPRPRPRPRKDPRP | 0.302 |
| RRIRRRPPRLPRPRPRPEKWPRP | -0.00174 |
| RRIRDRPPRLPRPRPRPYCQPRP | -0.226 |
| RRIRPRPPRLPRPRPRPQYAPRP | -0.103 |
| RRIRSRPPRLPRPRPRPHERPRP | 7.23e-05 |
| RRIRTRPPRLPRPRPRPGETPRP | -0.105 |
| RRIRARPPRLPRPRPRPQVDPRP | 0.04 |
| RRIRNRPPRLPRPRPRPAPWPRP | 0.266 |
| RRIRTRPPRLPRPRPRPICCPRP | 0.0718 |
| RRIRTRPPRLPRPRPRPGPHPRP | 0.124 |
| RRIRCRPPRLPRPRPRPTANPRP | 0.0466 |
| RRIRDRPPRLPRPRPRPNRSPRP | 0.0428 |
| RRIRARPPRLPRPRPRPMNCPRP | -0.116 |
| RRIRTRPPRLPRPRPRPDAGPRP | 0.11 |
| RRIRYRPPRLPRPRPRPKYHPRP | -2.19 |
| RRIRERPPRLPRPRPRPCTVPRP | -0.0354 |
| RRIRNRPPRLPRPRPRPNSRPRP | -0.266 |
| RRIRYRPPRLPRPRPRPTIAPRP | -0.338 |
| RRIRYRPPRLPRPRPRPQPWPRP | -0.149 |
| RRIRVRPPRLPRPRPRPPWGPRP | 0.0932 |
| RRIRERPPRLPRPRPRPYFKPRP | -0.258 |
| RRIRQRPPRLPRPRPRPNNLPRP | -0.401 |

| Sequence | shrunken log2 fold change |
| --- | --- |
| RRIRQRPPRLPRPRPRPSKKPRP | 0.0216 |
| RRIRPRPPRLPRPRPRPVYDPRP | -0.711 |
| RRIRQRPPRLPRPRPRPIAEPRP | -0.103 |
| RRIRGRPPRLPRPRPRPCSGPRP | -0.111 |
| RRIRARPPRLPRPRPRPQTMPRP | 0.108 |
| RRIRVRPPRLPRPRPRPEIWPRP | 0.223 |
| RRIRQRPPRLPRPRPRPVTTPRP | 0.0606 |
| RRIRCRPPRLPRPRPRPEVVPRP | 0.332 |
| RRIRYRPPRLPRPRPRPIRFPRP | -0.0383 |
| RRIRMRPPRLPRPRPRPIPYPRP | 0.013 |
| RRIRRRPPRLPRPRPRPASDPRP | -0.0475 |
| RRIRKRPPRLPRPRPRPVRIPRP | 0.494 |
| RRIRTRPPRLPRPRPRPGREPRP | 0.0772 |
| RRIRQRPPRLPRPRPRPKKYPRP | -0.0221 |
| RRIRPRPPRLPRPRPRPEFSPRP | -0.0202 |
| RRIRDRPPRLPRPRPRPKVLPRP | -0.041 |
| RRIRTRPPRLPRPRPRPERQPRP | -0.0252 |
| RRIRFRPPRLPRPRPRPDLYPRP | -0.053 |
| RRIRFRPPRLPRPRPRPPLNPRP | 0.0971 |
| RRIRIRPPRLPRPRPRPWTMPRP | -0.163 |
| RRIRLRPPRLPRPRPRPRPQPRP | 0.398 |
| RRIRMRPPRLPRPRPRPGYSPRP | -0.185 |
| RRIRFRPPRLPRPRPRPHPWPRP | -0.212 |
| RRIRHRPPRLPRPRPRPASMPRP | 0.0822 |
| RRIRLRPPRLPRPRPRPNSFPRP | -0.191 |
